Experimental data taken from patent US20090041770A1.

target: human FcRn fused to a His-tag and glutathione S transferase (FcRn-His-GST), complex of FcRn heavy chain with beta-2-microglobulin (human) (UniProt P55899); assay: AlphaScreen competition, 25 mM NaCl

| Medan Fold Increase | Substance |
| --- | --- |
| 5.99 | P257N/^281S (antibody) |

target: human FcRn fused to a His-tag and glutathione S transferase (FcRn-His-GST), complex of FcRn heavy chain with beta-2-microglobulin (human) (UniProt P55899); assay: AlphaScreen competition

| FcRn Binding ratio Variant / WT | Substance |
| --- | --- |
| 4.29 | L328Q/I332E (antibody) |
| 1.82 | L328R (antibody) |
| 1.35 | L328W (antibody) |
| 1.18 | N276D (antibody) |
| 1.18 | N276F (antibody) |
| 1.19 | N276H (antibody) |
| 1.21 | N276L (antibody) |
| 1.19 | N276R (antibody) |
| 1.27 | N276V (antibody) |
| 2 | N276W (antibody) |
| 2.12 | N286E (antibody) |
| 2.9 | N286P (antibody) |
| 1.45 | N286Y (antibody) |
| 1.45 | N325D (antibody) |
| 1.22 | N325F (antibody) |
| 1.43 | N325M (antibody) |
| 1.49 | P227E (antibody) |
| 1.67 | P227G (antibody) |
| 1.45 | P227K (antibody) |
| 1.77 | P228G (antibody) |
| 1.55 | P228K (antibody) |
| 1.45 | P228Y (antibody) |
| 1.01 | P230E (antibody) |
| 1.16 | P230G (antibody) |

| FcRn Binding ratio Variant / WT | Substance |
| --- | --- |
| 1.56 | P232K (antibody) |
| 1.03 | P238D (antibody) |
| 3.71 | P238E (antibody) |
| 2.41 | P238F (antibody) |
| 1.53 | P238G (antibody) |
| 1.46 | P238H (antibody) |
| 1.44 | P238I (antibody) |
| 5.01 | P238K (antibody) |
| 1.71 | P238L (antibody) |
| 2.33 | P238M (antibody) |
| 1.15 | P238N (antibody) |
| 1.12 | P238S (antibody) |
| 1.12 | P238T (antibody) |
| 1.43 | P238V (antibody) |
| 1.3 | P238W (antibody) |
| 1.01 | P271A (antibody) |
| 1.99 | P271I (antibody) |
| 1.14 | P271S (antibody) |
| 3.88 | P271T (antibody) |
| 1.06 | P271V (antibody) |
| 1.48 | P271Y (antibody) |
| 2.56 | P291H (antibody) |
| 1.15 | P291I (antibody) |
| 1.24 | P291Q (antibody) |

| FcRn Binding ratio Variant / WT | Substance |
| --- | --- |
| 1.27 | P329K (antibody) |
| 1.64 | P329R (antibody) |
| 3.16 | P329W (antibody) |
| 3.91 | P331F (antibody) |
| 1.77 | P331L (antibody) |
| 6.06 | P331Y (antibody) |
| 3.82 | Q295T (antibody) |
| 1.19 | Q295V (antibody) |
| 1.16 | R255E (antibody) |
| 12.9 | R255Y (antibody) |
| 1.67 | R292D (antibody) |
| 1.45 | R292E (antibody) |
| 1.36 | R292Y (antibody) |
| 2.92 | R301E (antibody) |
| 1.73 | S239D (antibody) |
| 1.26 | S239D/D265H/N297D/I332E (antibody) |
| 1.81 | S239D/E272I/I332E (antibody) |
| 1.49 | S239D/E272S/I332E (antibody) |
| 1.31 | S239D/E272Y/I332E (antibody) |
| 1.12 | S239D/I332D (antibody) |
| 2.22 | S239D/K326T/I332E (antibody) |
| 3.09 | S239D/N297D/I332E (antibody) |
| 1.47 | S239E (antibody) |
| 1.34 | S239E/I332E (antibody) |

| FcRn Binding ratio Variant / WT | Substance |
| --- | --- |
| 2.36 | S239E/V264I/A330Y/I332E (antibody) |
| 2.71 | S239E/V264I/I332E (antibody) |
| 10.1 | S239E/V264I/S298A/A330Y/I332E (antibody) |
| 1.16 | S239G (antibody) |
| 4.6 | S239L (antibody) |
| 1.03 | S239M (antibody) |
| 1.33 | S239Q/I332E (antibody) |
| 1.11 | S239Q/I332N (antibody) |
| 1.04 | S239Q/I332Q (antibody) |
| 1.04 | S239R (antibody) |
| 1.12 | S239T (antibody) |
| 1.17 | S239V (antibody) |
| 2.24 | S267E (antibody) |
| 1.7 | S267K (antibody) |
| 1.05 | S267L/A327S (antibody) |
| 1.54 | S298E (antibody) |
| 1.15 | S298F (antibody) |
| 3.99 | S298H (antibody) |
| 2.13 | S298T (antibody) |
| 1.19 | S304N (antibody) |
| 2.86 | S304T (antibody) |
| 1.27 | S324D (antibody) |
| 2.74 | S324G (antibody) |
| 1.07 | S324T (antibody) |

| FcRn Binding ratio Variant / WT | Substance |
| --- | --- |
| 2.04 | T223E (antibody) |
| 2.97 | T223K (antibody) |
| 4.89 | T225E (antibody) |
| 5.68 | T225K (antibody) |
| 6.89 | T225W (antibody) |
| 1.71 | T260D (antibody) |
| 5.49 | T260E (antibody) |
| 7.3 | T260H (antibody) |
| 7.51 | T260Y (antibody) |
| 1.86 | T299F (antibody) |
| 2.03 | T299H (antibody) |
| 1.09 | T299W (antibody) |
| 3.85 | T299Y (antibody) |
| 1.19 | T335F (antibody) |
| 1.16 | T335H (antibody) |
| 1.41 | T335I (antibody) |
| 1.5 | T335L (antibody) |
| 1.35 | T335M (antibody) |
| 1.23 | T335N (antibody) |
| 1.45 | T335P (antibody) |
| 1.42 | T335S (antibody) |
| 1.25 | T335V (antibody) |
| 1.35 | T335W (antibody) |
| 1.28 | V240I (antibody) |

| FcRn Binding ratio Variant / WT | Substance |
| --- | --- |
| 2.5 | V240M (antibody) |
| 2.61 | V240T (antibody) |
| 9.27 | V262E (antibody) |
| 2.71 | V263I (antibody) |
| 1.12 | V264A (antibody) |
| 7.67 | V264D (antibody) |
| 1.07 | V264F (antibody) |
| 1.32 | V264I (antibody) |
| 1.13 | V264I/A330L/I332E (antibody) |
| 1.7 | V264I/I332E (antibody) |
| 3.39 | V264N (antibody) |
| 5.13 | V264S (antibody) |
| 1.66 | V264T (antibody) |
| 1.17 | V266I (antibody) |
| 1.91 | V282E (antibody) |
| 1.16 | V282G (antibody) |
| 1.44 | V282K (antibody) |
| 1.92 | V282Y (antibody) |
| 1.51 | V284L (antibody) |
| 1.15 | V284T (antibody) |
| 2.44 | V302I (antibody) |
| 1.63 | V303E (antibody) |
| 1.15 | V303Y (antibody) |
| 1.79 | Y278D (antibody) |

| FcRn Binding ratio Variant / WT | Substance |
| --- | --- |
| 1.52 | Y278I (antibody) |
| 1.74 | Y278L (antibody) |
| 1.28 | Y278M (antibody) |
| 1.33 | Y278N (antibody) |
| 1.23 | Y278R (antibody) |
| 1.23 | Y278S (antibody) |
| 1.27 | Y278V (antibody) |
| 1.23 | Y296E (antibody) |
| 1.71 | Y296I (antibody) |
| 2.78 | Y296L (antibody) |
| 1.04 | Y300A (antibody) |
| 1.27 | Y300E (antibody) |
| 1.07 | Y300G (antibody) |
| 1.01 | Y300K (antibody) |
| 1.1 | Y300M (antibody) |
| 1.14 | Y300N (antibody) |
| 1.11 | Y300Q (antibody) |
| 1.09 | Y300V (antibody) |
